Experimental data: the DeepSol protein solubility set

Experiment: soluble on expression in E. coli; label from the status in PepcDB or PDB records

Sequence | soluble on expression in E. coli
MGSDKIHHHHHHMRILLTGIPSYLQRTVSGVSGAEVRHRPYFDEVRTKKELIEQVKKIANTGNYLIGEGAAHALRGHDVTYLPFWHLVNSRNSDEAYESLNEEFDICVFASANLLRPGYSADLEAEVFEKLKMPVVIMGIGIQRREGLKENLPAGTLKFLEVLRNKESFFLTRGYFTAEFLREQGMKFVKPTGCPSLFFAPAEMKRSLAALANPELASSQKIAFGGYLGSVADTIVDAHALLKPDSVASYVIQDEVVAYNLSLPVDDDLPVYDRASGRITGQTAYKHSEKWQRKHELLVFFDTNQWRSWVSARDLCFGRRFHGCIIGMQAGVPSLMIAVDDRMREMLEFIGFPYMEAAVWNREQDRKAYLASFLSKIDSQAVIDRYSACETNFRNALAHVGL | not soluble
MGSDKIHHHHHHMRILVTNDDGIQSKGIIVLAELLSEEHEVFVVAPDKERSATGHSITIHVPLWMKKVFISERVVAYSTTGTPADCVKLAYNVVMDKRVDLIVSGVNRGPNMGMDILHSGTVSGAMEGAMMNIPSIAISSANYESPDFEGAARFLIDFLKEFDFSLLDPFTMLNINVPAGEIKGWRFTRQSRRRWNDYFEERVSPFGEKYYWMMGEVIEDDDRDDVDYKAVREGYVSITPIHPFLTNEQCLKKLREVYD | not soluble
MGSDKIHHHHHHMRISYGVENLRSLTRTPEIELRPITILIGRNSAGKSTYLRSFALMRQSLEVKSSAPILWYGDYVDFGDFDAAVSNGDKDSDITFNFRVEDLDTRDVEDEIYYYNEYAYRSSRRKISYQAVSLSISLGEQLRRTVRRRIALEIPEDRISAVASFEKDGRECSDFQINGQRLSDLIPNVAVYFRASDIFDRPVLVRQVRKDGKSLRRVVGAASEIGSAISQRLRQQVDKRISEENLAIEARRILNHPRLDPTSLQQLRLRAGNRSFRKLYDRWLKDEASTTLAEIDHLCALNHALITVGRVSSVLKGFFRNTTYLGPARARSERYYRSQELEVSEISPDGQNLPMFLASLSTTEQGRFSDWVEEAFGFGVLVERKEGHVSIKLRQRTISVNVADTGYGVSQILPVLAQIWWATQIPRNYTRQMRHGLRPITMEQPELHLHPAHQAKLADVFQSAIERSNASGPEAVLLIETHSEALINRLGELIEYGKIAANDVQVVIFSARGEGEELNTEISTSTFDDNGALRDWPYGFFNY | not soluble
MGSDKIHHHHHHMRITIVTIFPEMVEVIKKYGVIARAVERGIVEINVENLRDYTTDRHRTVDDYQYGGGYGMVMKPEPFFRFYESYVEKYGKPYVILTSPQGRIFNYKIAEELSKKDDIVIFCGRYEGIDERVMSIVDDEISIGDYILTGGELPAMVITDAVVRLVPGVVERESVERESFHQGLLDHPVYTRPYEYKGMKVPDVLLSGDHEKVELWRRKESIKKTLAKRPDLFLAKELDEMDKLAIIELFRELMEKC | not soluble
MGSDKIHHHHHHMRIVLGVSSGIAIYKAVDLASKLRKEGHELHVVMTPDATRMISPVVFSAVGNCSVYHDWMDVRNGWIPHTEISRTADVLVVAPATANTISKIANGIADNLLTLVALAFDKDAKILVPTMNYRMYSNKLFQENLEKLKNNGWFVVEPEEGHLACGEVGKGRYPENEKIVEAVHLLTFPKKLAGKKVLITAGPTRERIDAVRFITNASSGKMGYALATVAKRMGARVSLVSGPTSLKPPYYVDEFVKVESAEEMYEEVMKRFEDTDIVIMNAAVGDYRPKKVFEGKLKKTENDLVLHLERTKDILKELGQRKSNQILVGFAAEVENFEENAVKKLREKNLDLLVLNDARKAFSSDRVEVYIYGRDGFIKRIDEDDKIRVACGILDVVSNLAGGSPS | not soluble
MGSDKIHHHHHHMRKINMMTTFECRVHTLEFDENYQPEMQSTRLTTNFANLARGENRKENLQNVIAMIDKRFNDLANWDNPTNDRYSVKLEIVSIDIDMEGKGKFFPALEWLKTYVIDHKTGKRIDGIVGNNFSSFVRDYDFSVLLLEHNRNKEEFTVPKGYGELHGKLFKYLLTSSAYKEKYSKPPVICLSVATTRTYRRTTNVHPILGVEYHQDNYSLTDEYFAKMGLSVRYFMPPKSVAPYAFYFDSNSDLLNDYTNLELISTIATMEAFQKIYRPEIYNANSVAGQVYKGSLTYQDYSVTKVEYDRVERTQLAIKQGKYTEAHFIKPYKAILDAWMAEK | not soluble
MGSDKIHHHHHHMRKLALPLVAFLTGGLAACSSSDVVESQGITVENCGSVVNFDSPPSHIALMKSAAVPTLDALGVLDRVVTKAGAFPAGYYDADLSERVTDIPTLSNKIDASGHVLISKEVVVAANPDIVFGETDTINRASMASSNIPVVEEPAFCGSIDGDVSFDDVWSQISTYGTIFDRSTEADAYIATLKERVSEVSSRVTDSGKTVAVLYPTIGGGVTYAYGRGSMANPLVAEAGLTNVFADQSERVFEVTAEELISRNPDYIIVLHSDGSPSDIVAEVGNLQGSSALTALSENKVLPILMNFAEPPTPLAVDGLEKIIDFVETHP | not soluble
MGSDKIHHHHHHMRLKVSFQAMESTVPLNYNYFLSSFIYKRLASQNENFARFLHEKGYGKRFKFFTFSQLFFENSRVSGERIFIFPGKGWWYISSPVVEFVRYMFSSLSEDPVIRVGKTEFIVKSIDIENSLPDQSEYHFVMLSPLVVSVPEENNGKLYHRYLHPGEEEFYEVFRKNLMKKYRAFYGKDPEGTVEVIPDWDYIKSRHRITKRIKLKNAFVRAVVFPFKIRGEKKLVEIGYEAGFGEKNSMGFGMVALKKYER | not soluble
MGSDKIHHHHHHMRLVLEEPFKRLWNGRDPFEAVEALQGKVYRELEGRRTLRTEVDGRGYFVKIHRGIGWGEIAKNLLTAKLPVLGARQEWQAIRRLHEAGVATMTAVAYGERGSDPARQHSFIVTEELAPTVDLEVFSQDWRERPPPPRLKRALVEAVARMVGDMHRAGVNHRDCYICHFLLHTDKPVSADDFRLSVIDLHRAQTRDATPKRWRNKDLAALYFSALDIGLTRRDKLRFLRTYFRRPLREILRDEAGLLAWMERKAEKLYERKQRYGDLL | not soluble
MGSDKIHHHHHHMRNPKPQEWKTEDYSQKKIADYKAFNFVDGEGVRNSLYVSGCLFACEGCFNKAVQNFNYGTPFTESLMNQIIEDLSHDYVQGLTLLGGEPFLNTDVCLSVVKRVRETFGSAKDIWSWSGYTFEELLLETPDKLELLHSIDILVDGRFELAKRNLNLQFRGSSNQRIIDVPKSLAAGKAVIWEKCHDAETSYEQIKKSI | not soluble
MGSDKIHHHHHHMRNRREVSKLLSERVLLLDGAYGTEFMKYGYDDLPEELNIKAPDVVLKVHRSYIESGSDVILTNTFGATRMKLRKHGLEDKLDPIVRNAVRIARRAAGEKLVFGDIGPTGELPYPLGSTLFEEFYENFRETVEIMVEEGVDGIIFETFSDILELKAAVLAAREVSRDVFLIAHMTFDEKGRSLTGTDPANFAITFDELDIDALGINCSLGPEEILPIFQELSQYTDKFLVVEPNAGKPIVENGKTVYPLKPHDFAVHIDSYYELGVNIFGGCCGTTPEHVKLFRKVLGNRKPLQRKKKRIFAVSSPSKLVTFDHFVVIGERINPAGRKKLWAEMQKGNEEIVIKEAKTQVEKGAEVLDVNFGIESQIDVRYVEKIVQTLPYVSNVPLSLDIQNVDLTERALRAYPGRSLFNSAKVDEEELEMKINLLKKYGGTLIVLLMGKDVPKSFEERKEYFEKALKILERHDFSDRVIFDPGVLPLGAEGKPVEVLKTIEFISSKGFNTTVGLSNLSFGLPDRSYYNTAFLVLGISKGLSSAIMNPLDETLMKTLNATLVILEKKELPRAEVKEEKLVEIILSGNRSELEKLVEDFLKEKDPLSVIEEHLRPAMERIGELYDKGKIFLPQLILAAQTVKPVFDKLTSMLPSDSQGETFVIATVKGDVHDIGKNIVASVIRSSGYRVVDLGKDVDTSEIVEAVEKERPVALGLSAMMTTTVGRIKEVVEKLKEKNLKIPVIVGGASLNEKLAKELGADYYAKNASEAVKILKSLGR | not soluble
MGSDKIHHHHHHMRTIDTIFSSEVNVPLYHYTGIGSLLGMANCKSVWASSISYMNDSKEIVHACETVENVLRARIVFGQKDEEHRFLEQLIEWTKSCSKVAHTMFVFSLSEKPSLLSQWRSYTPHGKGVSLEFSPNKVNEIARFTGMRIAKCVYDDREQEEIISILVEKLLVNFRQELPAMDITDKPPSQCYYDFINQYTSDIYQVLAIIKHGAFEEECEWRLISPHIPKFGDPRLKFREGASMLVPYIELPLGDKPFFRKIILGPSQHQNLNMSGLSMFMSNQGISNELLNCQIPYREW | not soluble
